The target of assay [1] is T1, monomeric Aβ (UniProt P05067 672-713). Briefly: SPR.
Assay [2] addresses T2, synthetic Aβ protofibrils (Aβ1-42-derived protofibrils) (UniProt P05067 672-713). Kind of assay: Octet BLI (Protein G sensor); PF 0.9167 nM.
Assay [3] concerns the target T2, synthetic Aβ protofibrils …. Briefly: Octet BLI (Protein G sensor); PF 3.67 nM.
The target is the same in assay [4]. Kind of assay: Octet BLI (Protein G sensor); PF 14.7 nM.
Assay [5] deals with T1, monomeric Aβ. Briefly: BIAcore SPR.
In assay [6] the target is T1, monomeric Aβ. Briefly: SPR. The source holds these as a separate data set.
The target in assay [7] is T1, monomeric Aβ. Briefly: BIAcore SPR. The source holds these as a separate data set.
Assay [8] has as its target T1, monomeric Aβ. Kind of assay: SPR. The source holds these as a separate data set.
Assay [9] deals with T1, monomeric Aβ. Briefly: SPR. This is another data set of the same source.
For assay [10], the target named is T2, synthetic Aβ protofibrils …. Kind of assay: Octet BLI (Protein G sensor); PF 3.67 nM; LB.
For assay [11] the target is unchanged. Kind of assay: Octet BLI (Protein G sensor); PF 14.7 nM; LB.
The target is the same in assay [12]. Kind of assay: Octet BLI (Protein G sensor); PF 0.9167 nM; LB.
Assay [13] has as its target T1, monomeric Aβ. Briefly: BIAcore SPR. This is another data set of the same source.

T1 sequence (P05067 672-713): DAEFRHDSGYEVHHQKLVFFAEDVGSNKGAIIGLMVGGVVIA
T2 sequence (P05067 672-713): as above

B1: B90 (hybridoma-purified mAb) (antibody, V domains shown)
VH: QVQLVESGGGVVQPGRSLRLSCAASGFTFSSYGMHWVRQAPGKGLEWVAIIWYDGSKKYYADSVKGRFTISRDNSKNTLYLQMNSLRVEDTAVYYCARRGRVGATRDYYYYSMDVWGQGTTVTVSS
VL: AIQMTQSPSSLSASVGDRVTITCRASQGIRNDLGWFHQKPGKAPKLLIYAASSLQSGVPSRFSGSGSGTDFTLTISSLQPEDFATYYCLQDYVYPWTFGQGTKVEIK
Turning to B1, the koff in the assay with monomeric Aβ [1] worked out at 0.00722 s⁻¹. Further, the Kd in [2], in assay [3] and in assay [4] was less than 1 pM in each case.

B2: B28 (hybridoma-purified mAb) (antibody, V domains shown)
VH: QVQLVESGGGVVQPGRSVRLSCAATGFTFSSYGMHWVRQAPGKGLEWVAVIWFDGSNEYYADSVRGRFTISRDNSKNTLYLQMNSLRAEDTAVYYCARRGRVGVTRNYYYYNMDVWGQGTTVTVSS
VL: AIQMTQSPSSLSASVGDRVTITCRASQGIRNDLGWFQQKPGKAPKLLIYPASSLQSGVPSRFSGSGSDTDFTLTISSLQPEDFATYYCLQDYNFPFTFGPGTKVDIK
B2: the results for the Kd in assay [3] and in assay [4] were less than 1 pM and 21800 pM, respectively. In addition, the koff with monomeric Aβ [5] amounted to 9.41e-05 s⁻¹.

B3: B51 (hybridoma-purified mAb) (antibody, V domains shown)
VH: QVQLVESGGGVVQPGRSLRLSCAASGFTFSSHGMHWVRQAPGKGLEWVAVIWYDGSNKNYADSVKGRFTISRDNSKNTLYLQMNSLRAEDTAVYYCARRGRVGVTRNYYYYGMDVWGQGTTVTVSS
VL: AIQMTQSPSSLSASVGDRVTITCRASQGIRNDLGWFQQKPVKAPKLLIYPASSLQSGVPSRFSGSGSGTDFTLTISSLQPEDFATYYCLQDYNYPWTFGQGTKVEIK
Turning to B3, the Kd in assay [2], in assay [3] and in assay [4] was less than 1 pM each time. In the assay with monomeric Aβ [6], the koff is 0.0144 s⁻¹.

B4: B60 (antibody, V domains shown)
VH: QVQLVESGGGVVQPGRSLRLSCAASGFTFSSHGMHWVRQAPGKGLEWVAVIWYDGSNKNYADSVKGRFTISRDNSKNTLYLQMNSLRAEDTAVYYCARRGRVGVTRNYYYYGMDVWGQGTTVTVSS
VL: AIQMTQSPSSLSASVGDRVTITCRASQGIRNDLGWFQQKPVKAPKLLIYPASSLQSGVPSRFSGSGSGTDFTLTISSLQPEDFATYYCLQDYNYPWTFGQGTKVEIK
B4 displayed an off-rate constant (koff) with monomeric Aβ [7] of 0.00356 s⁻¹.

B5: B54 (hybridoma-purified mAb) (antibody, V domains shown)
VH: QVQLVESGGGVVQPGRSLRLSCAASGFTFSTYGMHWVRQAPGKGLEWVALIWYDGSKKYYADSVQGRFTISRDSSKNTLYLQMNSLRVEDTAVYYCARRGRVGVTRNYYYYGMDVWGQGTTVTVSS
VL: AIQMTQSPSSLSASVGDRVTITCRTSQDIRNDLGWFQQKPGKAPKFLIYPASSLQGGVPSRFSGSGSGTDFILTISSLQPEDFATYYCLQDYNFPWTFGEGTKVEIK
As for B5, the Kd in [2], in [3] and in assay [4] was less than 1 pM throughout. Also, in the assay with monomeric Aβ [6], the off-rate (koff) is 0.00526 s⁻¹.

B6: B73 (hybridoma-purified mAb) (antibody, V domains shown)
VH: QLQLQMSGPGLVKPSETLSLTCTVSGGSISSSSYYWGWIRQSPGKGLEWIGSIYYSGRTYYNPSLKSRVTISVDTSKNQFSLKLSSVTAADTAMYYCARRSSGRPYYWGQGTLVTVSS
VL: QAVVTQESALTTSPGGTVILTCRSSTGAVTTSNYANWVQEKPDHLFTGLIGETNNRAPGVPVRFSGSLIGDKAALTITGAQTEDDAMYFCALWYSTHWVFGGGTKLTVL
As to B6, the Kd in assay [2], in [3] and in [4] was less than 1 pM in each case. This molecule also displayed a koff in the assay with monomeric Aβ [8] of 0.0012 s⁻¹.

B7: B24 (hybridoma-purified mAb) (antibody, V domains shown)
VH: EVQLLESGGGLVQPGGSLRLSCAASGFTFSSYAMTWVRQAPGEGLEWVSTISGSGIRTYYADSVKGRFTISRDNSKNTMYLQMNSLRAEDTAVYYCAKDGLTGDRRWYFDLWGRGTLVTVSS
VL: EIVMTQSPATLSLSPGERATLSCRASQSVSSSYFSWYQQKPGQAPRLLIYGASTRATGIPARFSGSGSGTDFTLTISSLQPEDFAVYYCQQDSNLPLTFGGGTKVEIK
In the assay with monomeric Aβ [9], B7 gave an off-rate (koff) of 0.0956 s⁻¹. Further, the Kd in assay [10], in assay [11] and in assay [12] was less than 1 pM each time.

B8: B19 reprep (=B24) (antibody, V domains shown)
VH: EVQLLESGGGLVQPGGSLRLSCAASGFTFSSYAMTWVRQAPGEGLEWVSTISGSGIRTYYADSVKGRFTISRDNSKNTMYLQMNSLRAEDTAVYYCAKDGLTGDRRWYFDLWGRGTLVTVSS
VL: EIVMTQSPATLSLSPGERATLSCRASQSVSSSYFSWYQQKPGQAPRLLIYGASTRATGIPARFSGSGSGTDFTLTISSLQPEDFAVYYCQQDSNLPLTFGGGTKVEIK
Consider B8, for which the koff with monomeric Aβ [13] came out at 6.58e-07 s⁻¹.

B9: B75 (hybridoma-purified mAb) (antibody, V domains shown)
VH: QVQLVESGGGVVQPGRSLRLSCAASGFTFSSYGMHWVRQAPGKGLEWVAVIWYDGSYKYYADSVKGRFTISRDNSKNTLYLQMNSLRVEDTAVYYCAREGRTYYDFLTGYFDFWGQGTLVTVSS
VL: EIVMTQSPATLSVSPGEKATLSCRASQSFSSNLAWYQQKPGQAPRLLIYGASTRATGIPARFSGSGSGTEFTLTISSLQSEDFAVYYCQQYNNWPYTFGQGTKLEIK
B9 gave a koff with monomeric Aβ [7] of 0.00238 s⁻¹.
